Results: the supplement of paper PMC12667976

B1: library; numbered along this chain (parent)
chain: MATDAALRRLLRLHRTEIAVAVDSAFPLLHALADHDVVPEDKFQETLHLKEKEGCPQAFHALLSWLLTQDSTAILDFWRVLFKDYNLERYGRLQPILDSFPKDVDLSQPRKGRKPPAVPKALVPPPRLPTKRKASEEARAAAPAALTPRGTASPGSQLKAKPPKKPESSAEQQRLPLGNGIQTMSASVQRAVAMSSGDVPGARGAVEGILIQQVFESGGSKKCIQVGGEFYTPSKFEDSGSGKNKARSSSGPKPLVRAKGAQGAAPGGGEARLGQQGSVPAPLALPSDPQLHQKNEDECAVCRDGGELICCDGCPRAFHLACLSPPLREIPSGTWRCSSCLQATVQEVQPRAEEPRPQEPPVETPLPPGLRSAGEEVRGPPGEPLAGMDTTLVYKHLPAPPSAAPLPGLDSSALHPLLCVGPEGQQNLAPGARCGVCGDGTDVLRCTHCAAAFHWRCHFPAGTSRPGTGLRCRSCSGDVTPAPVEGVLAPSPARLAPGPAKDDTASHEPALHRDDLESLLSEHTFDGILQWAIQSMARPAAPFPS

Variants of: B1
Test: AIRE transcriptional activation functional score (insulin promoter-GFP; nonsense median 0, synonymous median 1) (normalised score); higher = higher AIRE activity (more reporter activation)
Conditions: with insulin promoter-GFP reporter in HEK293
Procedure, shortened: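 Three regions of AIRE were covered by codon-optimized NNN-codon libraries, which Bxb1 recombinase integrated into Flp-In T-REx HEK293 landing-pad cells that carry an insulin core promoter-GFP reporter. Integrants (mCherry+, BFP−) were sorted at day 7 and expanded 7 days, and then the top 10% GFP population and the unselected integrant population were tile-sequenced. The functional score is the enrichment of each variant in select versus non-select cells, with wild type subtracted. Variants required 10 counts per million in non-select, and values were rescaled to a nonsense median of 0 and a synonymous median of 1, then averaged over biological replicates.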

AIRE transcriptional activation functional score of substitutions, site by site:
P499: F 1.11 | G 1.31 | H 1.16 | I 1.18 | K 0.747 | L 1.11 | N 0.266 | Q 1.15 | R 0.761 | S 1.1 | T 1.32 | V 1.21 | W 1.37 | Y 1.13
A500: C 1.07 | D 1.19 | E 0.98 | F 0.977 | G 0.758 | H 1.22 | I 1.1 | K 0.785 | L 0.907 | M 0.733 | N 0.646 | P 0.844 | Q 1.34 | R 0.915 | S 1.17 | T 1.12 | V 1.04 | W 1.42 | Y 0.944
K501: A 0.451 | C 0.625 | D 0.395 | E 0.49 | F 1.17 | G 0.947 | H 0.51 | I 0.714 | L 0.792 | M 0.223 | N 1.03 | P 0.836 | Q 1.08 | R 1.11 | S 1.3 | T 1.04 | V 0.712 | W 0.734 | Y 0.863
D502: A 0.926 | C 0.85 | E 0.952 | F 1.35 | G 1.04 | H 1.15 | I 1.02 | K 0.812 | L 0.916 | M 0.261 | N 0.775 | P 0.765 | Q 0.924 | R 0.415 | S 0.804 | T 0.991 | V 0.937 | W 1.04 | Y 1.33
D503: A 0.958 | C 0.896 | E 0.774 | F 0.724 | G 0.835 | H 0.851 | I 0.789 | K 0.372 | L 1 | N 0.852 | P 0.73 | Q 0.845 | R 0.543 | S 0.908 | T 1.41 | V 0.937 | Y 1.14
T504: A 1.58 | C 1.15 | D 1.79 | E 0.961 | F 0.918 | G 0.95 | I 1.6 | K 0.99 | L 0.843 | M 0.913 | N 0.713 | Q 1.7 | R 0.922 | S 1.44 | V 0.558 | W 1.23 | Y 1.77
A505: C 0.52 | D 0.657 | E 0.669 | F 0.703 | G 0.337 | H -0.421 | I 1.09 | K 0.78 | L 0.848 | M 0.663 | P 1.01 | R 0.832 | S 0.985 | T -0.258 | V 0.997 | Y 1.59
S506: A 1.36 | C 1.39 | D 1.11 | E 0.655 | F 0.873 | G 0.799 | H 1.08 | I 1.63 | K 0.443 | L 0.875 | M 0.671 | N 0.728 | P 1.11 | Q 0.92 | R 0.768 | T 0.197 | V 0.824 | W 0.477 | Y 1.42
H507: A 0.96 | C 0.78 | D 0.604 | E 0.521 | F 1.56 | G 0.805 | I 1.27 | K 0.802 | L 1.01 | M 1.47 | N 1.19 | P 1.02 | Q 0.898 | R 0.823 | S 0.954 | T 0.361 | V 1.12 | Y 1.18
E508: A 0.896 | C 0.854 | F 0.724 | G 0.721 | I 0.786 | K 0.0783 | L 0.506 | M 0.536 | N 0.552
